Values belong to the binder of their own block, whether it stands above or below them.
Assays:
[1] = molecular target: T1, human BLyS (full length, arginine 132 mutated to histidine) on CHO-K1 cells (human, UniProt Q9Y275 1-285); assay: flow cytometry (FACS) on CHO-K1 hBLyS cells, Alexa 488 secondary antibody
T1 construct: also called hBLyS; CHO-K1 hBLyS
Description: (§1) The medium was aspirated completely, and the cells were rinsed once with PBS buffer (purchased from Invitrogen) and then treated with cell dispersion solution (TrypLE™ Express Enzyme, purchased from Life technology) and collected. The detailed steps are as follows: the cells were rinsed once with PBS buffer, after counting, the cells were diluted to 2×10⁶ cells/ml with PBS buffer, blocked with 2% (w/w) fetal bovine serum and incubated on ice for 30 minutes. 200 μL of which per well was aliquoted into a 96-well FACS plate and centrifuged at 2000 rpm at 4° C., then each 100 μL of the lead antibodies obtained from Embodiment 1 and 2 were aliquoted into each well and incubated on ice for 1 hour. […] After centrifuged and rinsed 3 times with FACS buffer, cells were suspended with 200 μL of FACS buffer and the results were detected and analyzed by FACS (FACS Calibur, purchased from BD). It was shown in Tables 12-13 that the lead antibody could bind to human BLyS protein on the cell surface and the lead antibody could cross-react with cynomolgus BLyS. The data in the table is MFI, the average fluorescence intensity of the cell population.

[2] = molecular target: T2, cynomolgus BLyS (full length, arginine 132 mutated to histidine) on CHO-K1 cells (cynomolgus, UniProt Q9Y275 1-285 (human entry)); assay: flow cytometry (FACS) on CHO-K1 cynoBLyS cells, Alexa 488 secondary antibody
T2 construct: also called cyno BLyS; CHO-K1 cynoBLyS
T2 chain: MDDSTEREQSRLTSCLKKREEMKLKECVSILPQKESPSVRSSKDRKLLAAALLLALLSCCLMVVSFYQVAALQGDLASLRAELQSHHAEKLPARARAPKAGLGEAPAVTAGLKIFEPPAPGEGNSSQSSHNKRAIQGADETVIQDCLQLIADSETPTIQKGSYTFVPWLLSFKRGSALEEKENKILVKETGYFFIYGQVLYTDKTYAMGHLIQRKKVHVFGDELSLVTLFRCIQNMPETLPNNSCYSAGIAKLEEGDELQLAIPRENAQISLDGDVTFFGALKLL
Description: as §1

[3] = molecular target: T3, cynomolgus BLyS (full length, arginine to histidine at position 132) on CHO-K1 cells (cynomolgus, UniProt Q9Y275 1-285 (human entry)); assay: flow cytometry, CHO-K1 cynoBLyS cells, antibody 0.0213 nM
T3 construct: also called cyno BLyS; CHO-K1 cynoBLyS
T3 chain: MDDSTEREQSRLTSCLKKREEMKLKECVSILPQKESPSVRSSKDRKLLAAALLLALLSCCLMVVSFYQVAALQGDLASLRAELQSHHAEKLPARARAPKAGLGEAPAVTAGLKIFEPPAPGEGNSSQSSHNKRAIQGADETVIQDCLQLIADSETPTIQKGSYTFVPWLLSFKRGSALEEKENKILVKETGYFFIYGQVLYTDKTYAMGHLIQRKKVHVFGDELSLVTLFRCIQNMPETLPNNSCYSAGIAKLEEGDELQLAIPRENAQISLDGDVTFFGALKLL
Description: as §1

[4] = molecular target: hBLyS-ECD (His-tagged extracellular domain of human BLyS protein, Ala134-Leu285) (human, UniProt Q9Y275 134-285); assay: cell-based or functional assay
[5] = molecular target: T3, cynomolgus BLyS (full length, arginine …); assay: flow cytometry, CHO-K1 cynoBLyS cells, antibody 0 nM
Description: as §1

[6] = molecular target: T4, human BLyS (full length, arginine to histidine at position 132) on CHO-K1 cells (human, UniProt Q9Y275 1-285); assay: flow cytometry, CHO-K1 hBLyS cells, antibody 0.107 nM
T4 construct: also called hBLyS; CHO-K1 hBLyS
Description: as §1

[7] = molecular target: T4, human BLyS (full length, arginine to …); assay: flow cytometry, CHO-K1 hBLyS cells, antibody 0.00427 nM
Description: as §1

[8] = molecular target: T3, cynomolgus BLyS (full length, arginine …); assay: flow cytometry, CHO-K1 cynoBLyS cells, antibody 0.107 nM
Description: as §1

[9] = molecular target: T3, cynomolgus BLyS (full length, arginine …); assay: flow cytometry, CHO-K1 cynoBLyS cells, antibody 0.00427 nM
Description: as §1

[10] = molecular target: T4, human BLyS (full length, arginine to …); assay: flow cytometry, CHO-K1 hBLyS cells, antibody 0 nM
Description: as §1

[11] = molecular target: T4, human BLyS (full length, arginine to …); assay: flow cytometry, CHO-K1 hBLyS cells, antibody 0.0213 nM
Description: as §1

[12] = molecular target: T3, cynomolgus BLyS (full length, arginine …); assay: flow cytometry, CHO-K1 cynoBLyS cells, antibody 2.67 nM
Description: as §1

mouse BLyS protein = mouse BLyS protein (mouse, UniProt Q9WU72 69-309); assay: cell-based or functional assay
[13] = molecular target: T4, human BLyS (full length, arginine to …); assay: flow cytometry, CHO-K1 hBLyS cells, antibody 66.7 nM
Description: as §1

[14] = molecular target: T4, human BLyS (full length, arginine to …); assay: flow cytometry, CHO-K1 hBLyS cells, antibody 0.534 nM
Description: as §1

[15] = molecular target: T3, cynomolgus BLyS (full length, arginine …); assay: flow cytometry, CHO-K1 cynoBLyS cells, antibody 13.3 nM
Description: as §1

[16] = molecular target: T4, human BLyS (full length, arginine to …); assay: flow cytometry, CHO-K1 hBLyS cells, antibody 13.3 nM
Description: as §1

[17] = molecular target: T4, human BLyS (full length, arginine to …); assay: flow cytometry, CHO-K1 hBLyS cells, antibody 2.67 nM
Description: as §1

[18] = molecular target: T3, cynomolgus BLyS (full length, arginine …); assay: flow cytometry, CHO-K1 cynoBLyS cells, antibody 0.534 nM
Description: as §1

[19] = molecular target: T3, cynomolgus BLyS (full length, arginine …); assay: flow cytometry, CHO-K1 cynoBLyS cells, antibody 66.7 nM
Description: as §1

mouse BLyS protein, sequence (Q9WU72 69-309): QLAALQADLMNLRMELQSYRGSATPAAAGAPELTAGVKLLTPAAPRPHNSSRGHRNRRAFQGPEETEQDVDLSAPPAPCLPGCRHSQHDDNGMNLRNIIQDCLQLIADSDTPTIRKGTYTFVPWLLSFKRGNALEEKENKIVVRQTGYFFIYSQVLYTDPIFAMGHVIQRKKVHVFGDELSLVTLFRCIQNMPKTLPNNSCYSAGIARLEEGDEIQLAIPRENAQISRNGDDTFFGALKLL
T1 sequence (Q9Y275 other isoform, or with tags, fused parts or gaps limits assumed, change not shown): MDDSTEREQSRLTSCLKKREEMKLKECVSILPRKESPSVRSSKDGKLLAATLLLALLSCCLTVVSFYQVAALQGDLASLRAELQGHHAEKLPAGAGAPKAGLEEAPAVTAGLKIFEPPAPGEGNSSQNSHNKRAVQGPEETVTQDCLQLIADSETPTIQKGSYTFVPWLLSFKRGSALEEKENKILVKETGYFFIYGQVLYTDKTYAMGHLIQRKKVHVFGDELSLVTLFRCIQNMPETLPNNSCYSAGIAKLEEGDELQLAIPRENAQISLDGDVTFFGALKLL

EC50 (read off the curve) [1]: ~200 pM
EC50 (read off the curve) [2]: ~200 pM
B1: 20D1B6E9E5 (antibody, V domains shown)
VH: EVQLQQSVAELVRPGASVKLSCTASDFNIKNTYIHWVKQRPEQGLEWIGRIDPVNGNTKYAPKFQDKATIIVDTYSNTAYLQLSSLASEDTAVYYCARWPITTIVATDWYFDVWGTGTTVTVSS
VL: DVLMTQTQLALPVRLGEQASISCRSSQSIVNSNGNTYLEWYLQKPGQSPKLLIYKVSNRFSGVPDRFSGSGSGTDFTLKISRVEAEDLGVYYCFQGSHVPWTFGGGTKLEIK
notes: Mouse hybridoma antibody purified on Protein G

MFI [3]: 112 MFI
mouse B lymphocyte proliferation (OD450 nm), antibody 0 nM [4]: 3030 OD450 nm
mouse B lymphocyte proliferation (OD450 nm), antibody 0.000256 nM [4]: 3420 OD450 nm
mouse B lymphocyte proliferation (OD450 nm), antibody 0.00128 nM [4]: 3550 OD450 nm
mouse B lymphocyte proliferation (OD450 nm), antibody 0.0064 nM [4]: 4050 OD450 nm
mouse B lymphocyte proliferation (OD450 nm), antibody 0.032 nM [4]: 4360 OD450 nm
mouse B lymphocyte proliferation (OD450 nm), antibody 0.16 nM [4]: 3530 OD450 nm
mouse B lymphocyte proliferation (OD450 nm), antibody 0.8 nM [4]: 799 OD450 nm
mouse B lymphocyte proliferation (OD450 nm), antibody 4 nM [4]: 514 OD450 nm
mouse B lymphocyte proliferation (OD450 nm), antibody 20 nM [4]: 466 OD450 nm
mouse B lymphocyte proliferation (OD450 nm), antibody 100 nM [4]: 416 OD450 nm
MFI [5]: 21.9 MFI
MFI [6]: 175 MFI
MFI [7]: 44.9 MFI
MFI [8]: 308 MFI
MFI [9]: 46.9 MFI
MFI [10]: 31.6 MFI
MFI [11]: 76.6 MFI
MFI [12]: 729 MFI
mouse B lymphocyte proliferation (OD450 nm), antibody 0 nM (mouse BLyS protein): 2310 OD450 nm
mouse B lymphocyte proliferation (OD450 nm), antibody 0.000256 nM (mouse BLyS protein): 2310 OD450 nm
mouse B lymphocyte proliferation (OD450 nm), antibody 0.00128 nM (mouse BLyS protein): 2290 OD450 nm
mouse B lymphocyte proliferation (OD450 nm), antibody 0.0064 nM (mouse BLyS protein): 2510 OD450 nm
mouse B lymphocyte proliferation (OD450 nm), antibody 0.032 nM (mouse BLyS protein): 2540 OD450 nm
mouse B lymphocyte proliferation (OD450 nm), antibody 0.16 nM (mouse BLyS protein): 2540 OD450 nm
mouse B lymphocyte proliferation (OD450 nm), antibody 0.8 nM (mouse BLyS protein): 2530 OD450 nm
mouse B lymphocyte proliferation (OD450 nm), antibody 4 nM (mouse BLyS protein): 2640 OD450 nm
mouse B lymphocyte proliferation (OD450 nm), antibody 20 nM (mouse BLyS protein): 2620 OD450 nm
mouse B lymphocyte proliferation (OD450 nm), antibody 100 nM (mouse BLyS protein): 2740 OD450 nm
MFI [13]: 392 MFI
MFI [14]: 306 MFI
MFI [15]: 714 MFI
MFI [16]: 327 MFI
MFI [17]: 317 MFI
MFI [18]: 706 MFI
MFI [19]: 785 MFI
B2: 93C6F10D3 (antibody, V domains shown)
VH: EVQLVESGGGLVTPGGSLKLSCVASGFAFSTYGMSWVRQTPERRLEWVAYISGGGGSIYYPDSVKGRFTISRDNAKNILYLQMSSLKSEDTAMYHCTRHPDLLLRYDYALDHWGQGTSVTVSS
VL: DIQMTQSPASLSASVGETVTITCRASENIHIYLAWYQQKQGKSPQLLVYNGKTLADGVPSRFSGSGSGTQYSLKINTLQPEDFGNYYCQHFWNSTWTFGGGTKLEIK
notes: Mouse hybridoma monoclonal antibody purified on Protein G

EC50 (read off the curve) [1]: ~100 pM
EC50 (read off the curve) [2]: ~100 pM
B3: 93C6F10D3 (antibody, V domains shown)
VH: EVQLVESGGGLVTPGGSLKLSCVASGFAFSTYGMSWVRQTPERRLEWVAYISGGGGSIYYPDSVKGRFTISRDNAKNILYLQMSSLKSEDTAMYHCTRHPDLLLRYDYALDHWGQGTSVTVSS
VL: DIQMTQSPASLSASVGETVTITCRASENIHIYLAWYQQKQGKSPQLLVYNGKTLADGVPSRFSGSGSGTQYSLKINTLQPEDFGNYYCQHFWNSTWTFGGGTKLEIK
notes: as for B1

Source: patent US20210347873A1 (SHANGHAI PHARMAEXPLORER, published 2021)
